Molecular target: F-actin (polymerised rabbit skeletal muscle actin) (rabbit) (UniProt P68135)
Experiment: co-sedimentation

## GST-ΔFok fusion protein (c-Abl type IV amino acids 1015-1142 fused to GST) (domain or fragment)
  Kd: 18 µM
